Data reported in article PMC7214410, “A deubiquitylase with an unusually high-affinity ubiquitin-binding domain from the scrub typhus pathogen Orientia tsutsugamushi” (Nature Communications, 2020).

Columns and labels:
Conditions in all cases: both partners purified
[1] = biological target: T1, untagged ubiquitin (UniProt P0CG48 1-76); assay: ITC
T1 construct: also called mono-ubiquitin; Mono Ub; source: E. coli, purified (heated to 85 °C, SP-Sepharose, Superdex 75)

[2] = biological target: T1, untagged ubiquitin; assay: ITC; remark: listed apart in the source
[3] = biological target: T2, 6His-ubiquitin (human, UniProt P0CG48 1-76); assay: pull-down; GST-tagged UBD (25 µM) mixed with His-tagged ubiquitin (75 µM) in 25 mM Tris-HCl pH 8.0, 100 mM NaCl, 0.1 mM TCEP; glutathione sepharose 4B, 1 h at 2 °C; eluted with glutathione, Coomassie
T2 construct: also called His-tagged human ubiquitin; His-tagged ubiquitin; source: E. coli BL21(DE3), purified (Ni-NTA)

[4] = biological target: T3, human ubiquitin (His tag cleaved, for the co-crystal) (human, UniProt P0CG48 1-76); assay: crystal structure
T3 construct: also called free ubiquitin; UbS1; source: E. coli BL21(DE3), purified (Ni-NTA, TEV cleavage, HiTrap S, Superdex 75)

B1: OtDUB_(170–264) (the UBD) (domain or fragment)
chain: VNFLSENRMITSAAAALADTLLKNNNRITEGVLVDRIFDNKILSVQEKQQLLNNLLDNHIKENKSLTKESLTRMLASTHFVQQQANVLLNEKFNK
notes: source: E. coli Rosetta DE3, purified (glutathione resin, SEC)
[1]
  Kd: 0.0053 ± 0.0039 µM

B2: OtDUB_(1–177)-C135A (domain or fragment)
chain: MANDQDLSNPEYLYTEDDINQLLKHYLGLDDRISIIQHVALNESLLLKQTLHQVLSDIFSGMQEKAVIPLHTGNNHWVAMAIKKGMNDDIVISYNDPMGVSIDDKVTLINCIKELCPGAKINDLQTVQQTNVYDAGPFVVDNLIKMSQGQPILSTEEAKQQAQNIRQSQVNFLSENR
[2]
  Kd: 6.3 ± 0.2 µM

B3: GST-UBD_(170–259) (domain or fragment)
chain: VNFLSENRMITSAAAALADTLLKNNNRITEGVLVDRIFDNKILSVQEKQQLLNNLLDNHIKENKSLTKESLTRMLASTHFVQQQANVLLN
notes: also called GST-tagged UBD; OtDUBUBD; source: E. coli BL21(DE3), purified (Ni-NTA, GSTrap HP)
[3]
  binding result: binds

B4: GST-UBD_(170–259) N222A/D226A (domain or fragment)
chain: VNFLSENRMITSAAAALADTLLKNNNRITEGVLVDRIFDNKILSVQEKQQLLANLLANHIKENKSLTKESLTRMLASTHFVQQQANVLLN
notes: also called charge-neutralizing mutant; source: E. coli BL21(DE3), purified (Ni-NTA, GSTrap HP)
[3]
  binding result: binds

B5: GST-UBD_(170–259) D204A/D208A (domain or fragment)
chain: VNFLSENRMITSAAAALADTLLKNNNRITEGVLVARIFANKILSVQEKQQLLNNLLDNHIKENKSLTKESLTRMLASTHFVQQQANVLLN
notes: as for B4
[3]
  binding result: binds

B6: GST-UBD_(170–259) F207D (domain or fragment)
chain: VNFLSENRMITSAAAALADTLLKNNNRITEGVLVDRIDDNKILSVQEKQQLLNNLLDNHIKENKSLTKESLTRMLASTHFVQQQANVLLN
notes: source: E. coli BL21(DE3), purified (Ni-NTA, GSTrap HP)
[3]
  binding result: binds

B7: OtDUB_(1–259) (domain or fragment)
chain: GMANDQDLSNPEYLYTEDDINQLLKHYLGLDDRISIIQHVALNESLLLKQTLHQVLSDIFSGMQEKAVIPLHTGNNHWVAMAIKKGMNDDIVISYNDPMGVSIDDKVTLINCIKELCPGAKINDLQTVQQTNVYDCGPFVVDNLIKMSQGQPILSTEEAKQQAQNIRQSQVNFLSENRMITSAAAALADTLLKNNNRITEGVLVDRIFDNKILSVQEKQQLLNNLLDNHIKENKSLTKESLTRMLASTHFVQQQANVLLN
notes: also called OTT_1962 DUB domain with VR-1/UBD; DUB-UBD segment; source: E. coli BL21(DE3), purified (Ni-NTA, TEV cleavage, HiTrap Q, Superdex 75)
[4]
  binding result: binds
